Reference: US20240226163A1 (Regeneron, published 2024)
Positions count from the first letter of the chain named.

Legend:
[1] = target: HLA-A*02:01 presenting MAGE-A4 286-294 peptide (…) (human); test: cell-based or functional assay
[2] = target: HLA-A*02:01 presenting MAGE-A4 286-294 peptide (…) (human); test: cell-based or functional assay; remark: listed apart in the source
[3] = target: HLA-A*02:01 presenting CARD8 170-178 peptide (…) (human); test: cell-based or functional assay
[4] = target: HLA-A*02:01 presenting TEP1 2156-2164 peptide (…) (human); test: cell-based or functional assay
[5] = target: HLA-A*02:01 presenting NBAS 2063-2071 peptide (…) (human); test: cell-based or functional assay
[6] = target: HLA-A*02:01 presenting PSME2 145-153 peptide (…) (human); test: cell-based or functional assay
[7] = target: HLA-A*02:01 presenting AOX1 795-803 peptide (…) (human); test: cell-based or functional assay
[8] = target: HLA-A*02:01 presenting PCDHGC3 337-345 peptide (…) (human); test: cell-based or functional assay
[9] = target: HLA-A*02:01 presenting CNOT1 1965-1973 peptide (…) (human); test: cell-based or functional assay
[10] = target: HLA-A*02:01 presenting RABGAP1L 408-416 peptide (…) (human); test: cell-based or functional assay
[11] = target: HLA-A*02:01 presenting MRPL37 334-342 peptide (…) (human); test: cell-based or functional assay
[12] = target: HLA-A*02:01 presenting PLEKHH2 790-798 peptide (…) (human); test: cell-based or functional assay
[13] = target: T1, HLA-A*02:01 presenting HEATR5A 1925-1933 peptide (…) (human); test: cell-based or functional assay
[14] = target: HLA-A*02:01 presenting SMIM11A 4-12 peptide (…) (human); test: cell-based or functional assay
[15] = target: HLA-A*02:01 presenting SHTN1 198-206 peptide (…) (human); test: cell-based or functional assay
[16] = target: HLA-A*02:01 presenting MAGE-A4 286-294 peptide (…) (human); test: cell-based or functional assay; remark: listed apart in the source
[17] = target: HLA-A*02:01 presenting FN1 2182-2190 peptide (…) (human); test: cell-based or functional assay
[18] = target: T2, HLA-A*02:01 presenting MAGE-A4 286-294 peptide (…) (human); test: flow cytometry, peptide-pulsed T2 cells;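 as to S/N ratio: ratio of peak mean fluorescence intensity across a 12-point threefold antibody dilution series to the MFI with secondary antibody only, live-gated cells by flow cytometry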
T2 construct: On peptide-pulsed T2 cells

[19] = target: T3, HLA-A*02:01 presenting CARD8 170-178 peptide (…) (human); test: flow cytometry, peptide-pulsed T2 cells;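 as to S/N ratio: ratio of peak mean fluorescence intensity across a 12-point threefold antibody dilution series to the MFI with secondary antibody only, live-gated cells by flow cytometry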
T3 construct: On peptide-pulsed T2 cells; also called T2 Pulsed CARD8 170-178

[20] = target: T4, HLA-A*02:01 presenting TEP1 2156-2164 peptide (…) (human); test: flow cytometry, peptide-pulsed T2 cells;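 as to S/N ratio: ratio of peak mean fluorescence intensity across a 12-point threefold antibody dilution series to the MFI with secondary antibody only, live-gated cells by flow cytometry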
T4 construct: On peptide-pulsed T2 cells; also called T2 Pulsed TEP1 2156-2164

[21] = target: T5, HLA-A*02:01 presenting NBAS 2063-2071 peptide (…) (human); test: flow cytometry, peptide-pulsed T2 cells;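 as to S/N ratio: ratio of peak mean fluorescence intensity across a 12-point threefold antibody dilution series to the MFI with secondary antibody only, live-gated cells by flow cytometry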
T5 construct: On peptide-pulsed T2 cells; also called T2 Pulsed NBAS 2063-2071

[22] = target: T6, HLA-A*02:01 presenting PSME2 145-153 peptide (…) (human); test: flow cytometry, peptide-pulsed T2 cells
T6 construct: On peptide-pulsed T2 cells; also called T2 Pulsed PSME2 145-153

[23] = target: T7, HLA-A*02:01 presenting PCDHGC3 337-345 peptide (…) (human); test: flow cytometry, peptide-pulsed T2 cells
T7 construct: On peptide-pulsed T2 cells; also called T2 Pulsed PCDHGC3 337-345

[24] = target: T8, HLA-A*02:01 presenting CNOT1 1965-1973 peptide (…) (human); test: flow cytometry, peptide-pulsed T2 cells
T8 construct: On peptide-pulsed T2 cells; also called T2 Pulsed CNOT1 1965-1973

[25] = target: T9, HLA-A*02:01 presenting RABGAP1L 408-416 peptide (…) (human); test: flow cytometry, peptide-pulsed T2 cells
T9 construct: On peptide-pulsed T2 cells; also called T2 Pulsed RABGAP1L 408-416

[26] = target: T10, HLA-A*02:01 presenting MRPL37 334-342 peptide (…) (human); test: flow cytometry, peptide-pulsed T2 cells
T10 construct: On peptide-pulsed T2 cells; also called T2 Pulsed MRPL37 334-342

[27] = target: T11, HLA-A*02:01 presenting PLEKHH2 790-798 peptide (…) (human); test: flow cytometry, peptide-pulsed T2 cells
T11 construct: On peptide-pulsed T2 cells; also called T2 Pulsed PLEKHH2 790-798

[28] = target: T1, HLA-A*02:01 presenting HEATR5A …; test: flow cytometry, peptide-pulsed T2 cells
[29] = target: T12, HLA-A*02:01 presenting SMIM11A 4-12 peptide (…) (human); test: flow cytometry, peptide-pulsed T2 cells
T12 construct: On peptide-pulsed T2 cells; also called T2 Pulsed SMIM11A 4-12

[30] = target: T13, HLA-A*02:01 presenting FN1 2182-2190 peptide (…) (human); test: flow cytometry, peptide-pulsed T2 cells
T13 construct: On peptide-pulsed T2 cells; also called T2 Pulsed FN1 2182-2190

[31] = target: T3, HLA-A*02:01 presenting CARD8 170-178 …; test: flow cytometry, peptide-pulsed T2 cells; remark: listed apart in the source
[32] = target: T4, HLA-A*02:01 presenting TEP1 2156-2164 …; test: flow cytometry, peptide-pulsed T2 cells; remark: listed apart in the source
[33] = target: T5, HLA-A*02:01 presenting NBAS 2063-2071 …; test: flow cytometry, peptide-pulsed T2 cells; remark: listed apart in the source
[34] = target: T6, HLA-A*02:01 presenting PSME2 145-153 …; test: flow cytometry, peptide-pulsed T2 cells; remark: listed apart in the source
[35] = target: T14, HLA-A*02:01 presenting AOX1 795-803 peptide (…) (human); test: flow cytometry, peptide-pulsed T2 cells
T14 construct: On peptide-pulsed T2 cells; also called T2 Pulsed AOX1 795-803

[36] = target: T7, HLA-A*02:01 presenting PCDHGC3 337-345 …; test: flow cytometry, peptide-pulsed T2 cells; remark: listed apart in the source
[37] = target: T8, HLA-A*02:01 presenting CNOT1 1965-1973 …; test: flow cytometry, peptide-pulsed T2 cells; remark: listed apart in the source
[38] = target: T9, HLA-A*02:01 presenting RABGAP1L 408-416 …; test: flow cytometry, peptide-pulsed T2 cells; remark: listed apart in the source
[39] = target: T10, HLA-A*02:01 presenting MRPL37 334-342 …; test: flow cytometry, peptide-pulsed T2 cells; remark: listed apart in the source
[40] = target: T11, HLA-A*02:01 presenting PLEKHH2 790-798 …; test: flow cytometry, peptide-pulsed T2 cells; remark: listed apart in the source
[41] = target: T1, HLA-A*02:01 presenting HEATR5A …; test: flow cytometry, peptide-pulsed T2 cells; remark: listed apart in the source
[42] = target: T12, HLA-A*02:01 presenting SMIM11A 4-12 …; test: flow cytometry, peptide-pulsed T2 cells; remark: listed apart in the source
[43] = target: T15, HLA-A*02:01 presenting SHTN1 198-206 peptide (…) (human); test: flow cytometry, peptide-pulsed T2 cells
T15 construct: On peptide-pulsed T2 cells; also called T2 Pulsed SHTN1 198-206

[44] = target: T2, HLA-A*02:01 presenting MAGE-A4 286-294 …; test: flow cytometry, peptide-pulsed T2 cells; remark: listed apart in the source
[45] = target: T13, HLA-A*02:01 presenting FN1 2182-2190 …; test: flow cytometry, peptide-pulsed T2 cells; remark: listed apart in the source

B1: bsAb6054 (bispecific antibody, V domains shown)
VH 1: QVQLVESGGGLVKPGGSLRLSCAASGFTFSEYYLTWIRQAPGKGLDWIAYISSSGYNIYYADSVKDRFTISRDNGKNSLFLQMNNLRAEDTAVYFCAREGVTDGMDVWGQGTTVTVSS
VH 2: EVQLVESGGGLVQPGRSLRLSCAASGFTFADYTMHWVRQAPGKGLEWVSDISWNSGSIAYADSVKGRFTISRDNAKNSLYLQMNSLRTEDTAFYYCAKDSRGYGHYKYLGLDVWGQGTTVTVSS
VL: DIQMTQSPSSLSASVGDRVTITCRASQSIDTFLNWYQQKPGKVPKLLIYAASNLESGVPSRFSGSGSGTVFTLTISRLQPEDFATYYCQQSYSIPPITFGQGTRVEIK
For B1, the “EC50, NF-κB luciferase, Jurkat + IM-9, with 2 nM mAb5705 (anti-CD28)” value [1] was 2.1 nM, the “EC50, NF-κB luciferase, Jurkat + U266, with 2 nM mAb5705 (anti-CD28)” value [1] was 6.1 nM and the “Fold Activation, NF-κB luciferase, Jurkat + IM-9, with 2 nM mAb5705 (anti-CD28)” value [1] was 28.7 fold. For the same binder, the “Fold Activation, NF-κB luciferase, Jurkat + U266, with 2 nM mAb5705 (anti-CD28)” value [1] was 8.6 fold, the “EC50, NF-κB luciferase, Jurkat/NF-κB Luc + IM-9” value [2] was 0.74 nM and the “EC50, NF-κB luciferase, Jurkat/NF-κB Luc + U266” value [2] was 3.1 nM. The “Fold Activation, NF-κB luciferase, Jurkat/NF-κB Luc + IM-9” value [2] was 41.9 fold, the “Fold Activation, NF-κB luciferase, Jurkat/NF-κB Luc + U266” value [2] was 6.3 fold and the “EC50 (M), Jurkat/NF-κB-Luc reporter with pulsed T2 cells” value (shortened to “EC50 (M), Jurkat/NF-κB-Luc reporter”) [3] was greater than 2e-08 M. The “Fold change, Jurkat/NF-κB-Luc reporter with pulsed T2 cells” value (shortened to “Fold change, Jurkat/NF-κB-Luc reporter”) [3] was 1.2 fold, the “EC50 (M), Jurkat/NF-κB-Luc reporter” value [4] was greater than 2e-08 M and the “Fold change, Jurkat/NF-κB-Luc reporter” value [4] was 1.2 fold. For the same binder, the “EC50 (M), Jurkat/NF-κB-Luc reporter” value [5] was greater than 2e-08 M, the “Fold change, Jurkat/NF-κB-Luc reporter” value [5] was 1.3 fold and the “EC50 (M), Jurkat/NF-κB-Luc reporter” value [6] was greater than 2e-08 M. For the same binder, the “Fold change, Jurkat/NF-κB-Luc reporter” value [6] was 1 fold, the “EC50 (M), Jurkat/NF-κB-Luc reporter” value [7] was 2.1e-11 M and the “Fold change, Jurkat/NF-κB-Luc reporter” value [7] was 36 fold. For the same binder, the “EC50 (M), Jurkat/NF-κB-Luc reporter” value [8] was greater than 2e-08 M, the “Fold change, Jurkat/NF-κB-Luc reporter” value [8] was 1 fold and the “EC50 (M), Jurkat/NF-κB-Luc reporter” value [9] was greater than 2e-08 M. For the same binder, the “Fold change, Jurkat/NF-κB-Luc reporter” value [9] was 1 fold, the “EC50 (M), Jurkat/NF-κB-Luc reporter” value [10] was greater than 2e-08 M and the “Fold change, Jurkat/NF-κB-Luc reporter” value [10] was 1 fold. For the same binder, the “EC50 (M), Jurkat/NF-κB-Luc reporter” value [11] was greater than 2e-08 M, the “Fold change, Jurkat/NF-κB-Luc reporter” value [11] was 2.4 fold and the “EC50 (M), Jurkat/NF-κB-Luc reporter” value [12] was greater than 2e-08 M. For the same binder, the “Fold change, Jurkat/NF-κB-Luc reporter” value [12] was 2.8 fold, the “EC50 (M), Jurkat/NF-κB-Luc reporter” value [13] was greater than 2e-08 M and the “Fold change, Jurkat/NF-κB-Luc reporter” value [13] was 1.2 fold. The “EC50 (M), Jurkat/NF-κB-Luc reporter” value [14] was greater than 2e-08 M, the “Fold change, Jurkat/NF-κB-Luc reporter” value [14] was 1 fold and the “EC50 (M), Jurkat/NF-κB-Luc reporter” value [15] was 1.3e-09 M. The “Fold change, Jurkat/NF-κB-Luc reporter” value [15] was 81.1 fold, the “EC50 (M), Jurkat/NF-κB-Luc reporter” value [16] was 2e-12 M and the “Fold change, Jurkat/NF-κB-Luc reporter” value [16] was 78.7 fold. For the same binder, the “EC50 (M), Jurkat/NF-κB-Luc reporter” value [17] was greater than 2e-08 M and the “Fold change, Jurkat/NF-κB-Luc reporter” value [17] was 1 fold.

B2: mAbM31339N (antibody, V domains shown)
VH: B1 VH 1 with K76N
VL: B1 VL
notes: Human variable regions with a mouse constant region (detected with anti-mouse Fc secondary; its isotype control is mIgG2a); also called mAb31339N
With B2 the EC50 [18] was 1.7 nM.

B3: mAbH31339N2 (antibody, human IgG4 S228P, kappa, V domains shown)
VH: B1 VH 1
VL: DIQMTQSPSSLSASVGDRVTITCRASQSIDTFLNWYQQKPGKVPKLLIYAASNLESGVPSRFSGSGSGTVFTLTISRLQPEDFATYYCQQSYSIPPITFGQGTRVEIKR
notes: Fully human form (human constant region); also called parent antibody
B3: no binding [19]; no binding [20]; no binding [21]. B3: no binding [22]; no binding [23]; no binding [24]. B3: no binding [25]; no binding [26]; no binding [27]. B3: no binding [28]; no binding [29]; no binding [30]. It also gave a S/N ratio [31] of 1, a S/N ratio [32] of 1 and a S/N ratio [33] of 1. It also gave a S/N ratio [34] of 1, a S/N ratio [35] of 131 and a S/N ratio [36] of 1. The S/N ratio [37] was 1, the S/N ratio [38] was 1 and the S/N ratio [39] was 1. It also gave a S/N ratio [40] of 1, a S/N ratio [41] of 1 and a S/N ratio [42] of 1. It also gave a S/N ratio [43] of 5, a S/N ratio [44] of 310 and a S/N ratio [45] of 1.
